Source: publication PMC9357639
Blank lines part the entries; values can stand above or below the substance they belong to.

Legend:
STAT3 [1] = biological target: STAT3 (UniProt P40763); experiment: anti-Flag co-IP, Flag-STAT3 with HA-STAT3; conditions: reference: wild type STAT3; sites T622
STAT3 [2] = biological target: STAT3 (UniProt P40763); experiment: size exclusion chromatography, fractions immunoblotted; conditions: sites T622
STAT3 [3] = biological target: STAT3 (UniProt P40763); experiment: anti-Flag IP of purified Flag-STAT3 and GST-STAT3; conditions: reference: wild type GST- and Flag-STAT3; sites T622

STAT3, sequence (P40763 whole entry, stated change not applied): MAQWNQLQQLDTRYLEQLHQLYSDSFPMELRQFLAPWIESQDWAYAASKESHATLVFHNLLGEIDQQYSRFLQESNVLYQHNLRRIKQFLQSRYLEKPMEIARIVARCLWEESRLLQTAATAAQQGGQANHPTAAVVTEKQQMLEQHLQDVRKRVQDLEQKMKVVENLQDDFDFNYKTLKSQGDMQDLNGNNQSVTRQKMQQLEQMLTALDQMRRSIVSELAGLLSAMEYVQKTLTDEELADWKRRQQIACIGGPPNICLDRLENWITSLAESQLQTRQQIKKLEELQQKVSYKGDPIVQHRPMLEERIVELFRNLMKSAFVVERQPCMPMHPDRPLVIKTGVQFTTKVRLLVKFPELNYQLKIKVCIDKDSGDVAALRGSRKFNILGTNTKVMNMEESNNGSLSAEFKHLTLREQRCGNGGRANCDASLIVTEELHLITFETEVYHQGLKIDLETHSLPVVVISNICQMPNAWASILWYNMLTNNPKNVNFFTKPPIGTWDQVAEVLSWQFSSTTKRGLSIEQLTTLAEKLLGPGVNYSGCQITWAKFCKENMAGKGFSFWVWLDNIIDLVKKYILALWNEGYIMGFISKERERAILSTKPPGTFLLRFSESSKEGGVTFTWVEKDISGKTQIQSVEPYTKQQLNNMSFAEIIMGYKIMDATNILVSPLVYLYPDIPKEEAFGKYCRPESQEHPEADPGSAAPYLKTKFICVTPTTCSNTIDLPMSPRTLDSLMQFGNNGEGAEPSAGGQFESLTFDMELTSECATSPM

binding against the reference (STAT3 [1]): stronger
Substance: STAT3 (from UniProt P40763) STAT3 T622A

Substance: STAT3 (from UniProt P40763) His-MST2 treated
binding against the reference (STAT3 [2]; reference: untreated WT Flag-STAT3): same

binding against the reference (STAT3 [3]): stronger
Substance: STAT3 (from UniProt P40763) T622A GST- and Flag-STAT3

binding against the reference (STAT3 [2]; reference: wild type Flag-STAT3): stronger
Substance: STAT3 (from UniProt P40763) Flag-STAT3 T622A
